Results: patent publication US9809645B2, “Anti-Staphylococcus antibody, method for manufacturing same, and usage of same” (priority 2013, dated 2017)
Structures can show the parent of a compound that is named as a salt.

B1: ZBIA5H: antibody produced by hybridoma NITE BP-1367; heavy and light chain variable regions SEQ ID NOs: 7 and 8 (antibody, listed as Mus musculus, V domains shown)
VH: QIQLVQSGPELKKPGETVKISCKASGYTFTDYSMHWVKQAPGKGLKWMGWINTETGEPTYADDFKGRFAFSLETSASTAYLQINNLKNEDTATYFCARPYYAMDYWGQGTSVTVSS
VL: DIQMTQSPSSLSASLGGKVTITCKASQDINKYIAWYQHKPGKGPRLLIHYTSTLQPGIPSRFSGSGSGRDYSFSISNLEPEDIATYYCLQYDNLLPWTFGGGTKLEIK
B2: ZBIA9H: anti-Staphylococcus monoclonal antibody; CDRs SEQ ID NOs: 17-22, variable regions SEQ ID NOs: 23 and 24 (antibody, listed as Mus musculus, V domains shown)
VH: EVQLVESGGGLVQPKGSLKLSCAASGFTFNTYAMNWVRQAPGKGLEWVARIRSKSNNYATYYADSVKDRFTIFRDDSQSILYLQLNNLKTEDTAMYYCVRRGGNPYYAMDYWGQGTSVTVSS
VL: QIVLSQSPAILSASPGEKVTMTCRASSSVSYMHWYQQKPGSSPKPWIYATSNLASGVPGRFSGSGSGTSYSLTISRVEAEDAATYYCQQWSSNPPTFGGGTKLEIK
B3: ZBIA3H: antibody produced by hybridoma NITE BP-1366; heavy and light chain variable regions SEQ ID NOs: 15 and 16 (antibody, listed as Mus musculus, V domains shown)
VH: EVQLVESGGGLVQPKGSLKLSCAASGFTFNTYAMNWVRQAPGKGLEWVARIRSKSNNYATYYADSVKDRFTISRDDSQSMLYLQMNSLKTEDTAMYYCVRRGGNAIYYAMDYWGQGTSVTVSS
VL: QIVLTQSPAIMSASPGEKVTMTCSANSSVSYMHWYQQKSGTSPKAWIYDTSKLASGVPARFSGSGSGTSYSLTISSMEAEDAATYYCQQWSSNPPTFGSGTKLEIK

What was measured:
[1] = test system: Staphylococcus aureus strain MW2; assay: Community-acquired MRSA mouse pneumonia model, therapeutic; type: in vivo; details: 1 mg into tail vein three days after nasal infection with 4×10^8 cells MW2; lungs five days after infection; BALB/c mice; compared to PBS group; Wilcoxon rank sum test; FIGS. 10 and 11
Protocol: The Staphylococcus aureus strain MW2 was nasally administered, at 4×10^8 cells/40 μL PBS, to female 7-week-old BALB/c mice to allow the bacteria to infect the lungs. Three days later, 0.2 mL of a test sample (PBS, 1 mg anti-Staphylococcus antibody, 1 mg mouse IgG, 1 mg vancomycin hydrochloride (VCM)) was administered into the tail veins.
Five days after the Staphylococcus aureus administration (two days after the test sample administration), the lungs were extirpated, homogenized, and the resulting suspensions were applied to mannitol salt agar plates. They were cultured for 36 hours at 37° C. The number of colonies that appeared was counted, and was used as the number of lung infecting bacteria.

[2] = test system: Staphylococcus aureus strain MW2; assay: Community-acquired MRSA mouse sepsis model; type: in vivo; details: 1 mg antibody intraperitoneal with 8×10^8 cells MW2; female BALB/c mice; compared to PBS-administered group; Fisher's exact test; FIGS. 4 and 5
Protocol: (§1) The Staphylococcus aureus strain MW2, at 8×10^8 cells/0.5 mL PBS, and 0.2 mL of a test substance (PBS, 1 mg anti-Staphylococcus antibody, 1 mg mouse IgG) were administered to the peritoneal cavities of female 7-week-old BALB/c mice, and the number of surviving mice was determined.

[3] = test system: Staphylococcus aureus (protein A knock-out OS2 strain); assay: Staphylococcus aureus solid phase Cell-ELISA (live cells immobilized); type: binding; details: purified antibody; A405; FIG. 2
Protocol: In order to detect antibodies actually capable of binding to an infectious Staphylococcus capable of growth, the binding of the anti-Staphylococcus antibodies was measured using Staphylococcus aureus solid phase Cell-ELISA in which live cells were immobilized onto a solid phase.
A protein A knock-out OS2 strain was grown in stationary culture for 16 hours at 30° C. in TSB, collected by centrifugation, washed three times using Dulbecco's phosphate buffered saline (-) (hereinafter “PBS”), and adjusted to a concentration of about A600=0.1.
This was dispensed at 100 μL for each well of a 96-well ELISA plate (Nunc, Maxisorp), and the well was left standing for 6 hours at 4° C. to coat the cells. After washing three times with PBS, 300 μL of 1% rabbit serum/PBS was added to each well, and the well was left standing for 16 hours at 4° C. to perform blocking. Furthermore, after washing three times with 0.05% Tween 20/PBS, 100 μL/well of an immunized mouse serum or hybridoma culture supernatant was added to each well, and the well was left standing for 2 hours at 30° C. After washing three times with 0.05% Tween 20/PBS again, 100 μL/well of a goat HRP-labelled F(ab′)2 anti-mouse IgG+IgM (BioSource) or a goat HRP-labelled F(ab′)2 anti-mouse IgG (γ) (KPL) was added as the secondary antibody to each well, and the well was left standing for 2 hours at 30° C. After washing three times with 0.05% Tween 20/PBS, 100 μL/well of ABTS was added to each well as the substrate to allow color to develop, and photometry at A405 was performed using a microplate reader to measure the amount of anti-Staphylococcus antibodies.
The binding affinity between an anti-Staphylococcus antibody and a Staphylococcus was examined by ELTSA reactivity.

[4] = test system: Staphylococcus aureus strain VRS1; assay: Highly vancomycin-resistant MRSA mouse sepsis model; type: in vivo; details: 1 mg antibody intraperitoneal with 2-3×10^9 cells VRS1; female BALB/c mice; compared to PBS-administered group and VCM-administered group; Fisher's exact test; FIG. 7
Protocol: as §1, with “VRS1,” for “MW2,”, “2-3×10^9” for “8×10^8”, “sample” for “substance”, “IgG, 1 mg vancomycin hydrochloride (VCM))” for “IgG)”

[5] = test system: Staphylococcus aureus strain MW2; assay: Community-acquired MRSA mouse pneumonia model, preventive; type: in vivo; details: 1 mg into tail vein one hour before nasal infection with 4×10^8 cells MW2; lungs four days after infection; BALB/c mice; compared to PBS group; Wilcoxon rank sum test; FIGS. 8 and 9
Protocol: A 0.2 mL portion of a test sample (PBS, 1 mg anti-Staphylococcus antibody, 1 mg vancomycin hydrochloride (VCM)) was administered into the tail vein, and one hour after the administration, the Staphylococcus aureus strain MW2 was nasally administered at 4×10^8 cells/40 μL PBS to female 7-week-old BALB/c mice to infect the lungs. Four days after the infection, the lungs were extirpated, suspended using a homogenizer, applied to mannitol salt agar plates, and cultured for 36 hours at 37° C. The number of colonies that appeared was counted, and was defined as the number of lung infecting bacteria.

Molecule | number of lung infecting bacteria (therapeutic) [1] | life-prolonging effect (number of surviving mice) [2] | binding affinity to Staphylococcus aureus (ELISA reactivity, grouped by added concentration and reactivity) [3] | life-prolonging effect (number of surviving mice) [4] | number of lung infecting bacteria (preventive) [5]
CN[C@H](CC(C)C)C(=O)N[C@H]1C(=O)N[C@@H](CC(N)=O)C(=O)N[C@H]2C(=O)N[C@H]3C(=O)N[C@H](C(=O)N[C@H](C(=O)O)c4cc(O)cc(O)c4-c4cc3ccc4O)[C@H](O)c3ccc(c(Cl)c3)Oc3cc2cc(c3O[C@@H]2O[C@H](CO)[C@@H](O)[C@H](O)[C@H]2O[C@H]2C[C@](C)(N)[C@H](O)[C@H](C)O2)Oc2ccc(cc2Cl)[C@H]1O [VCM, vancomycin hydrochloride, reference compound] | significantly reduced numbers of lung infecting bacteria |  |  |  | 
B1 | significantly reduced numbers of lung infecting bacteria | significant life-prolonging effects | moderate level of binding affinity | significant life-prolonging effects | significantly reduced numbers of lung infecting bacteria
B2 |  |  | moderate level of binding affinity |  | 
B3 | significantly reduced numbers of lung infecting bacteria | significant life-prolonging effects | moderate level of binding affinity | significant life-prolonging effects | significantly reduced numbers of lung infecting bacteria
